From patent publication US20230357446A1

Target: CD22 on WSU-DLCL2 cells (WSU-DLCL2/CD22^WT; absent from the CRISPR-edited WSU-DLCL2/CD22^KO line) (human) (UniProt P20273)
Test: cell-based or functional assay

Work on REGN5837 (bispecific antibody) yielded a % CD22^KO Survival; ratio CD22^KO:CD22^WT 20:80; 5 pM R1979 +0.46 nM R5837 of 29.9%, a % CD22^KO Survival; ratio CD22^KO:CD22^WT 20:80; 5 pM R1979 +2.8 nM R5837 of 25.2% and a % CD22^KO Survival; ratio CD22^KO:CD22^WT 20:80; 5 pM R1979 +16.7 nM R5837 of 20.9%. It also gave a % CD22^KO Survival; ratio CD22^KO:CD22^WT 40:60; 5 pM R1979 +0.46 nM R5837 of 31.9%, a % CD22^KO Survival; ratio CD22^KO:CD22^WT 40:60; 5 pM R1979 +2.8 nM R5837 of 24.1% and a % CD22^KO Survival; ratio CD22^KO:CD22^WT 40:60; 5 pM R1979 +16.7 nM R5837 of 19.9%. It also gave a % CD22^KO Survival; ratio CD22^KO:CD22^WT 60:40; 5 pM R1979 +0.46 nM R5837 of 33.9%, a % CD22^KO Survival; ratio CD22^KO:CD22^WT 60:40; 5 pM R1979 +2.8 nM R5837 of 28.2% and a % CD22^KO Survival; ratio CD22^KO:CD22^WT 60:40; 5 pM R1979 +16.7 nM R5837 of 19.1%. The % CD22^KO Survival; ratio CD22^KO:CD22^WT 80:20; 5 pM R1979 +0.46 nM R5837 was 37.2%, the % CD22^KO Survival; ratio CD22^KO:CD22^WT 80:20; 5 pM R1979 +2.8 nM R5837 was 28.8% and the % CD22^KO Survival; ratio CD22^KO:CD22^WT 80:20; 5 pM R1979 +16.7 nM R5837 was 26.9%. It also gave a % CD22^KO Survival; ratio CD22^KO:CD22^WT 100:0; 5 pM R1979 +0.46 nM R5837 of 60.1%, a % CD22^KO Survival; ratio CD22^KO:CD22^WT 100:0; 5 pM R1979 +2.8 nM R5837 of 56% and a % CD22^KO Survival; ratio CD22^KO:CD22^WT 100:0; 5 pM R1979 +16.7 nM R5837 of 45.4%. It also gave a % CD22^WT Survival; ratio CD22^KO:CD22^WT 0:100; 5 pM R1979 +0.46 nM R5837 of 28.5%, a % CD22^WT Survival; ratio CD22^KO:CD22^WT 0:100; 5 pM R1979 +2.8 nM R5837 of 22.4% and a % CD22^WT Survival; ratio CD22^KO:CD22^WT 0:100; 5 pM R1979 +16.7 nM R5837 of 12.6%. For the same substance, the % CD22^WT Survival; ratio CD22^KO:CD22^WT 20:80; 5 pM R1979 +0.46 nM R5837 was 19.3%, the % CD22^WT Survival; ratio CD22^KO:CD22^WT 20:80; 5 pM R1979 +2.8 nM R5837 was 16.4% and the % CD22^WT Survival; ratio CD22^KO:CD22^WT 20:80; 5 pM R1979 +16.7 nM R5837 was 11.2%. It also gave a % CD22^WT Survival; ratio CD22^KO:CD22^WT 40:60; 5 pM R1979 +0.46 nM R5837 of 20.1%, a % CD22^WT Survival; ratio CD22^KO:CD22^WT 40:60; 5 pM R1979 +2.8 nM R5837 of 12.8% and a % CD22^WT Survival; ratio CD22^KO:CD22^WT 40:60; 5 pM R1979 +16.7 nM R5837 of 9.45%. The % CD22^WT Survival; ratio CD22^KO:CD22^WT 60:40; 5 pM R1979 +0.46 nM R5837 was 19.1%, the % CD22^WT Survival; ratio CD22^KO:CD22^WT 60:40; 5 pM R1979 +2.8 nM R5837 was 12.4% and the % CD22^WT Survival; ratio CD22^KO:CD22^WT 60:40; 5 pM R1979 +16.7 nM R5837 was 8.6%. The % CD22^WT Survival; ratio CD22^KO:CD22^WT 80:20; 5 pM R1979 +0.46 nM R5837 was 20.6%, the % CD22^WT Survival; ratio CD22^KO:CD22^WT 80:20; 5 pM R1979 +2.8 nM R5837 was 13.1% and the % CD22^WT Survival; ratio CD22^KO:CD22^WT 80:20; 5 pM R1979 +16.7 nM R5837 was 7.95%. It also gave a CD4+ T cell activation (MFI of CD25); ratio CD22^KO:CD22^WT 0:100; 5 pM R1979 +0.46 nM R5837 of 13400 MFI, a CD4+ T cell activation (MFI of CD25); ratio CD22^KO:CD22^WT 0:100; 5 pM R1979 +2.8 nM R5837 of 14800 MFI and a CD4+ T cell activation (MFI of CD25); ratio CD22^KO:CD22^WT 0:100; 5 pM R1979 +16.7 nM R5837 of 17700 MFI. The CD4+ T cell activation (MFI of CD25); ratio CD22^KO:CD22^WT 20:80; 5 pM R1979 +0.46 nM R5837 was 11200 MFI, the CD4+ T cell activation (MFI of CD25); ratio CD22^KO:CD22^WT 20:80; 5 pM R1979 +2.8 nM R5837 was 14400 MFI and the CD4+ T cell activation (MFI of CD25); ratio CD22^KO:CD22^WT 20:80; 5 pM R1979 +16.7 nM R5837 was 15300 MFI. It also gave a CD4+ T cell activation (MFI of CD25); ratio CD22^KO:CD22^WT 40:60; 5 pM R1979 +0.46 nM R5837 of 11800 MFI, a CD4+ T cell activation (MFI of CD25); ratio CD22^KO:CD22^WT 40:60; 5 pM R1979 +2.8 nM R5837 of 13200 MFI and a CD4+ T cell activation (MFI of CD25); ratio CD22^KO:CD22^WT 40:60; 5 pM R1979 +16.7 nM R5837 of 13600 MFI. It also gave a CD4+ T cell activation (MFI of CD25); ratio CD22^KO:CD22^WT 60:40; 5 pM R1979 +0.46 nM R5837 of 8520 MFI, a CD4+ T cell activation (MFI of CD25); ratio CD22^KO:CD22^WT 60:40; 5 pM R1979 +2.8 nM R5837 of 10900 MFI and a CD4+ T cell activation (MFI of CD25); ratio CD22^KO:CD22^WT 60:40; 5 pM R1979 +16.7 nM R5837 of 12000 MFI. The CD4+ T cell activation (MFI of CD25); ratio CD22^KO:CD22^WT 80:20; 5 pM R1979 +0.46 nM R5837 was 7520 MFI, the CD4+ T cell activation (MFI of CD25); ratio CD22^KO:CD22^WT 80:20; 5 pM R1979 +2.8 nM R5837 was 8280 MFI and the CD4+ T cell activation (MFI of CD25); ratio CD22^KO:CD22^WT 80:20; 5 pM R1979 +16.7 nM R5837 was 9850 MFI. For the same substance, the CD4+ T cell activation (MFI of CD25); ratio CD22^KO:CD22^WT 100:0; 5 pM R1979 +0.46 nM R5837 was 4280 MFI, the CD4+ T cell activation (MFI of CD25); ratio CD22^KO:CD22^WT 100:0; 5 pM R1979 +2.8 nM R5837 was 4060 MFI and the CD4+ T cell activation (MFI of CD25); ratio CD22^KO:CD22^WT 100:0; 5 pM R1979 +16.7 nM R5837 was 3150 MFI. It also gave a CD8+ T cell activation (MFI of CD25); ratio CD22^KO:CD22^WT 0:100; 5 pM R1979 +0.46 nM R5837 of 7920 MFI, a CD8+ T cell activation (MFI of CD25); ratio CD22^KO:CD22^WT 0:100; 5 pM R1979 +2.8 nM R5837 of 9030 MFI and a CD8+ T cell activation (MFI of CD25); ratio CD22^KO:CD22^WT 0:100; 5 pM R1979 +16.7 nM R5837 of 9880 MFI. For the same substance, the CD8+ T cell activation (MFI of CD25); ratio CD22^KO:CD22^WT 20:80; 5 pM R1979 +0.46 nM R5837 was 6310 MFI, the CD8+ T cell activation (MFI of CD25); ratio CD22^KO:CD22^WT 20:80; 5 pM R1979 +2.8 nM R5837 was 8410 MFI and the CD8+ T cell activation (MFI of CD25); ratio CD22^KO:CD22^WT 20:80; 5 pM R1979 +16.7 nM R5837 was 8660 MFI. It also gave a CD8+ T cell activation (MFI of CD25); ratio CD22^KO:CD22^WT 40:60; 5 pM R1979 +0.46 nM R5837 of 6140 MFI, a CD8+ T cell activation (MFI of CD25); ratio CD22^KO:CD22^WT 40:60; 5 pM R1979 +2.8 nM R5837 of 7920 MFI and a CD8+ T cell activation (MFI of CD25); ratio CD22^KO:CD22^WT 40:60; 5 pM R1979 +16.7 nM R5837 of 7880 MFI. For the same substance, the CD8+ T cell activation (MFI of CD25); ratio CD22^KO:CD22^WT 60:40; 5 pM R1979 +0.46 nM R5837 was 4800 MFI, the CD8+ T cell activation (MFI of CD25); ratio CD22^KO:CD22^WT 60:40; 5 pM R1979 +2.8 nM R5837 was 6620 MFI and the CD8+ T cell activation (MFI of CD25); ratio CD22^KO:CD22^WT 60:40; 5 pM R1979 +16.7 nM R5837 was 6670 MFI. It also gave a CD8+ T cell activation (MFI of CD25); ratio CD22^KO:CD22^WT 80:20; 5 pM R1979 +0.46 nM R5837 of 4250 MFI, a CD8+ T cell activation (MFI of CD25); ratio CD22^KO:CD22^WT 80:20; 5 pM R1979 +2.8 nM R5837 of 4890 MFI and a CD8+ T cell activation (MFI of CD25); ratio CD22^KO:CD22^WT 80:20; 5 pM R1979 +16.7 nM R5837 of 4970 MFI. For the same substance, the CD8+ T cell activation (MFI of CD25); ratio CD22^KO:CD22^WT 100:0; 5 pM R1979 +0.46 nM R5837 was 3000 MFI, the CD8+ T cell activation (MFI of CD25); ratio CD22^KO:CD22^WT 100:0; 5 pM R1979 +2.8 nM R5837 was 2510 MFI and the CD8+ T cell activation (MFI of CD25); ratio CD22^KO:CD22^WT 100:0; 5 pM R1979 +16.7 nM R5837 was 2160 MFI.
